{"source": "paper PMC12278311", "about": "“PNUTS:PP1 recruitment to Tox4 regulates chromosomal dispersal in Drosophila germline development” (Cell reports, 2025)", "binders": {"B1": {"name": "Tox4 C-terminal domain, human, residues 571-621, C601S (domain or fragment)", "chain": "RCVRSGCENPPIVSKDWDNEYCSNECVVKHSRDVFLAWVASRNSNTVVFVK", "notes": "TOX4, human, residues 571-621; Cloned in pTHMT (His6-MBP-TEV site); also called TOX4 C601S; Tox4571-621 C601S; source: E. coli BL21 (DE3) with 0.1 mM ZnSO4, purified (HisTrap, TEV cleavage, Ni-NTA and amylose resin, SEC); not shown: His6, N-terminal, cleaved; MBP, N-terminal, cleaved"}, "B2": {"name": "Tox4 CTD (human Tox4 571-621) (domain or fragment, UniProt O94842 571-621, looked up)", "chain": "B1 chain with S31C", "notes": "TOX4, human, C-terminal domain, residues 571-621; also called Tox4 C-terminal domain; zinc-loaded Tox4; source: E. coli BL21 (DE3) with 0.1 mM ZnSO4, purified (HisTrap, TEV cleavage, amylose resin, SEC); not shown: His6, N-terminal, cleaved; MBP, N-terminal, cleaved"}, "B3": {"name": "Tox4 CTD (human Tox4 571-621, C601S) (domain or fragment, UniProt O94842 571-621, looked up)", "chain": "B1 chain", "notes": "TOX4, human, C-terminal domain, residues 571-621; also called Tox4_(C601S); source: E. coli BL21 (DE3) with 0.1 mM ZnSO4, purified (HisTrap, TEV cleavage, amylose resin, SEC); not shown: His6, N-terminal, cleaved; MBP, N-terminal, cleaved"}}, "conditions_in_all_cases": "both partners purified", "key": {"[1]": {"target": "T1, PNUTS N-terminal domain (TND), rat, residues 5-160, C48S (rat, C48S)", "T1 construct": "PP1 nuclear targeting subunit (PNUTS, PPP1R10), rat, residues 5-160; Cloned in pRP1b; His6 tag cleaved with TEV protease; also called PNUTS C48S; PNUTS5-160 C48S; source: E. coli BL21 (DE3), purified (HisTrap, TEV cleavage, Ni-NTA flow-through, SEC)", "T1 chain": "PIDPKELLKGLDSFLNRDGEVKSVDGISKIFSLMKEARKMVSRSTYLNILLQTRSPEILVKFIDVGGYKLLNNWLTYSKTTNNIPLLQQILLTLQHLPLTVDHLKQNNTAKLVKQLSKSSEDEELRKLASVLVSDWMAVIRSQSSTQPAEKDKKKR", "assay": "ITC; Tox4 titrated into PNUTS; Affinity-ITC, 25 °C; 20 mM Tris pH 8.5, 150 mM NaCl, 0.1 mM ZnSO4, 0.5 mM TCEP; one-site model assuming 1:1 stoichiometry; 3 replicates"}, "[2]": {"target": "T2, PNUTS TND (rat PNUTS 5-160, C48S) (rat, UniProt O55000 5-160, C48S)", "T2 construct": "PNUTS (PPP1R10), rat, N-terminal TFIIS domain, residues 5-160; cloned in pRP1b; 15N-labelled for NMR; also called PNUTS N-terminal domain; PNUTS NTD; source: E. coli BL21 (DE3), purified (HisTrap, TEV cleavage, Ni-NTA flow-through, SEC)", "T2 sequence (looked up)": "T1 chain with N16T, S28A, L50I, S55A, I58V, N73S", "assay": "NMR titration; 2D [1H,15N] HSQC of 15N-labelled PNUTS with zinc-loaded Tox4 at a 1:2 molar ratio; 20 mM MES pH 6, 150 mM NaCl, 5 mM DTT; 298 K"}, "[3]": {"target": "T2, PNUTS TND (rat PNUTS 5-160, C48S)", "assay": "ITC; Tox4 titrated into PNUTS at 25°C; 20 mM Tris pH 8.5, 150 mM NaCl, 0.1 mM ZnSO4, 0.5 mM TCEP; one-site model assuming 1:1"}}, "note": "Substitutions are numbered along the chain they refer to. In names and notes the source's numbering stands."}
{"binder": "B1", "values": [{"measurement": "Kd", "setting": "[1]", "value": "300 ± 200", "unit": "pM"}]}
{"binder": "B2", "values": [{"measurement": "binding result", "setting": "[2]", "value": "binds"}]}
{"binder": "B3", "values": [{"measurement": "Kd", "setting": "[3]", "value": 300, "unit": "pM"}]}
